Measured values published in the supplement of paper PMC11908140.

B1: library; numbered along this chain (parent)
chain: MRKPRAAVGSGHRKQAASQEGRQKHAKNNSQAKPSACDGLARQPEEVVLQASVSSYHLFRDVAEVTAFRGSLLSWYDQEKRDLPWRRRAEDEMDLDRRAYAVWVSEVMLQQTQVATVINYYTGWMQKWPTLQDLASASLEEVNQLWAGLGYYSRGRRLQEGARKVVEELGGHMPRTAETLQQLLPGVGRYTAGAIASIAFGQATGVVDGNVARVLCRVRAIGADPSSTLVSQQLWGLAQQLVDPARPGDFNQAAMELGATVCTPQRPLCSQCPVESLCRARQRVEQEQLLASGSLSGSPDVEECAPNTGQCHLCLPPSEPWDQTLGVVNFPRKASRKPPREESSATCVLEQPGALGAQILLVQRPNSGLLAGLWEFPSVTWEPSEQLQRKALLQELQRWAGPLPATHLRHLGEVVHTFSHIKLTYQVYGLALEGQTPVTTVPPGARWLTQEEFHTAAVSTAMKKVFRVYQGQQPGTCMGSKRSQVSSPCSRKKPRMGQQVLDNFFRSHISTDAHSLNSAAQ

Variants of: B1
Test: 8OG:A repair function score (normalized; synonymous = 0, nonsense = -1) (normalized log-likelihood score); higher = more repair activity (WT-like)
Conditions: with 8OG:A DNA repair reporter (GFP) in HEK-293 MUTYH KO cells
Method in brief: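 After 72 h, viable mCherry+ cells were split into GFP+ (repair) and GFP− bins in three replicates per tile. These cells were MUTYH knockout HEK-293 cells holding lentiviral MUTYH cDNA NNN codon-scan libraries, kept in 10 pg/ml doxycycline and co-transfected with mCherry plus an 8OG:A GFP repair reporter. Sequencing of tile amplicons gave per-tile Rosace fitness scores, normalized into a repair function score anchored on synonymous and nonsense distributions. Synonymous medians were fixed at 0, nonsense at -1, and variants under 300 counts per million at the start were removed.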
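Also: cells sorted at 72 h after reporter transfection.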

8OG:A repair function score, by site and new letter:
P383: Y -0.0911; I -0.14; F -0.202; D 0.0298; N -0.294; C -0.0431; R 0.0404; W -0.185; T 0.0211; Q 0.0121; G -0.0743; H 0.0207; M -0.333; K -0.1; A 0.0723; V -0.163; S -0.0364; L -0.0053; E 0.0397
T380: R 0.162; H -0.465; A 0.0285; P -0.128; G 0.0924; I -0.128; F 0.194; K -0.0484; S 0.139; E -0.0632; V -0.0828; D 0.0495; M -0.0793; C -0.0502; W -0.271; Q 0.429; L -0.0431; Y 0.0876; N -0.171
S378: M -0.037; V -0.2; E -0.297; N 0.0818; D -0.953; P -0.772; I -0.143; H -0.255; Q 0.0825; G -0.248; A -0.104; R -0.122; T 0.295; Y -0.26; F -0.0771; K -0.24; W -0.346; C 0.0237; L -0.171
K390: T -0.141; F -0.0738; H 0.403; A -0.201; G -0.0253; C 0.0921; Q 0.474; I -0.265; E -0.0669; M -0.0263; Y -0.199; W -0.444; P -0.262; R -0.126; D 0.0762; V -0.164; N 0.177; L -0.0847; S 0.0865
E375: W -0.45; S -0.243; A -0.313; Y -0.285; T -0.355; L -0.83; C -0.342; M -0.229; R -0.462; V -0.423; H -0.347; K -0.462; P -0.897; G -0.0637; D -0.434; N -0.407; F -0.673; Q 0.0245; I -0.715
F376: V -0.809; S -0.657; A -0.775; D -0.964; Y -0.715; T -0.441; H -0.879; M -0.13; C -0.559; I -0.775; W -0.757; K -0.92; G -1.2; E -1.28; R -1.31; N -1.17; P -1.02; L -0.608; Q -1.35
P377: K -1.11; F -1.17; E -1.13; G -1.26; M -1.07; Y -0.964; S -0.809; Q -0.969; A -0.486; W -1.42; L -0.733; R -1.04; I -0.348; C -0.633; H -1.31; D -1.06; N -0.977; T -0.573; V -0.171
Q388: L 0.511; N 0.244; M -0.052; F -0.281; S -0.201; W -0.0946; H -0.356; T -0.108; V 0.063; G -0.34; A 0.235; K -0.55; D 0.0946; I 0.175; P 0.145; E -0.368; R 0.206; C -0.459; Y -0.235
E385: F -0.34; L 0.0198; W 0.109; M 0.0941; V -0.0807; H -0.135; T -0.24; A 0.0147; S -0.167; P -0.17; Y -0.00387; Q 0.29; N -0.0672; C 0.258; G -0.126; R -0.0734; I 0.197; D 0.0907; K -0.468
S384: E 0.0681; T -0.0483; R -0.115; A 0.0362; C -0.202; M -0.315; D 0.201; G 0.138; I 0.0514; V -0.0122; K -0.0507; N -0.0929; P -0.218; Y -0.227; L -0.000173; F 0.0338; H -0.0587; Q -0.345
L387: F -0.293; M 0.0425; V -0.0288; Y -0.136; W -0.0182; N -0.167; H -0.744; R -0.0979; P -0.26; T 0.0729; Q 0.0651; C -0.171; I 0.125; D 0.259; K 0.00861; S 0.154; G -0.154; A -0.21; E -0.0756
Q386: Y 0.41; K -0.213; C 0.0105; L 0.304; G 0.0232; W 0.351; V -0.383; P -0.219; F -0.144; N 0.0466; E -0.0345; H 0.241; I 0.129; M 0.34; A 0.0488; R 0.0701; T -0.191; S -0.0961; D -0.076
V379: T -0.0632; E -0.777; S -0.0246; G -0.37; K -0.667; Y -0.744; R -0.476; A 0.00194; H -0.391; F -0.299; N -0.658; D -0.793; W -0.453; L -0.463; P -0.937; I -0.327; M -0.148; C -0.214; Q -0.792
W381: T 0.0347; Y -0.0016; A 0.0585; N 0.268; P -0.215; M 0.148; C 0.15; E 0.244; L 0.07; H 0.26; D -0.141; K -0.184; R -0.0405; I 0.0761; S -0.174; Q 0.126; V 0.0132; F -0.181; G 0.0649
A391: M -0.279; F 0.112; V 0.0327; D -0.378; I 0.114; T -0.42; S -0.175; N -0.196; G -0.201; R -0.136; Q -0.0188; C -0.0464; K -0.22; Y -0.00342; W -0.428; E -0.106; L -0.101; P -0.305
R389: E -0.116; C -0.13; Q -0.613; L -0.04; A -0.241; W -0.531; V 0.273; M -0.236; N -0.415; K -0.274; Y -0.0127; H -0.403; I 0.462; T 0.1; D -0.426; G -0.385; P -0.583; F -0.357; S -0.117
E382: P 0.149; N 0.0107; A -0.0399; K -0.213; Y 0.217; L 0.0169; I -0.0196; H 0.042; G -0.0795; T 0.196; C -0.16; W 0.0332; M 0.019; D -0.0303; R -0.0901; F 0.0805; V 0.0267; Q 0.185; S 0.000352
W374: M 0.217; Q -0.828; S -0.607; Y -0.274; V -0.874; K -0.692; P -1.01; L -0.36; R -1.03; N -0.645; I -0.729; T -1.02
L392: A -0.807
